In paper PMC12554172 (2025):

B1: FLAG-tagged FBXO44 FBA domain (FBXO44^FBA) [human] / RGS2^5–16 peptide (RGS2 degron, Met^5–Met^16) [not stated] (parent complex)
chain 1: FYFLRSLHRNLLHNPCAEEGFEFWSLDVNGGDEWKVEDLSRDQRKEFPNDQVKKYFVTSYYTCLKSQVVDLKAEGYWEELMDTTRPDIEVKDWFAARPDCGSKYQLCVQLLSSAHAPLGTFQPDPATIQQKSDAKWREVSHTFSNYPPGVRYIWFQHGGVDTHYWAGWYGPRVTNSSITIGP
chain 2: MFLAVQHDCRPM

Variants of: B1
Test: peptide microarray (PEPperPRINT), α-FLAG fluorescence; three independent experiments with three technical replicates each; parent: 100; read off a plot

Row | percent of parent [% Parent] | Variant
1 | ~90 | chain 2 M12H
2 | ~120 | chain 2 M12Y
3 | ~72 | chain 2 M12G
4 | ~130 | chain 2 M12D
5 | ~88 | chain 2 M12Q
6 | ~85 | chain 2 M12I
7 | ~85 | chain 2 M12T
8 | ~130 | chain 2 M12C
9 | ~140 | chain 2 M12K
10 | ~90 | chain 2 M12V
11 | ~100 | chain 2 M12F
12 | ~200 | chain 2 M12R
13 | ~110 | chain 2 M12W
14 | ~92 | chain 2 M12S
15 | ~87 | chain 2 M12N
16 | ~90 | chain 2 M12L
17 | ~90 | chain 2 M12P
18 | ~110 | chain 2 M12E
19 | ~67 | chain 2 M12A

Variants of: B1
Test: as above
Remark: another data set of the same source

Row | percent of parent [% Parent Peptide] | Variant
20 | ~200 | chain 2 M12R
21 | ~130 | chain 2 C9R
22 | ~140 | chain 2 H7R
23 | ~220 | chain 2 D8K
24 | ~280 | chain 2 D8R
25 | ~260 | chain 2 P11R
26 | ~150 | chain 2 P11K

Variants of: B1
Test: as above
Remark: another data set of the same source

Row | percent of parent [% Parent] | Variant
27 | ~17 | chain 2 C9H
28 | ~15 | chain 2 C9N
29 | ~28 | chain 2 C9D
30 | ~13 | chain 2 C9G
31 | ~13 | chain 2 C9V
32 | ~13 | chain 2 C9L
33 | ~13 | chain 2 C9M
34 | ~20 | chain 2 C9F
35 | ~15 | chain 2 C9T
36 | ~25 | chain 2 C9A
37 | ~47 | chain 2 C9K
38 | ~50 | chain 2 C9W
39 | ~15 | chain 2 C9E
40 | ~25 | chain 2 C9Q
41 | ~55 | chain 2 C9Y
42 | ~130 | chain 2 C9R
43 | ~15 | chain 2 C9P
44 | ~13 | chain 2 C9S
45 | ~15 | chain 2 C9I

Variants of: B1
Test: as above
Remark: another data set of the same source

Row | percent of parent [% Parent] | Variant
46 | ~110 | chain 2 H7Q
47 | ~100 | chain 2 H7L
48 | ~100 | chain 2 H7F
49 | ~100 | chain 2 H7I
50 | ~120 | chain 2 H7C
51 | ~100 | chain 2 H7D
52 | ~95 | chain 2 H7A
53 | ~95 | chain 2 H7E
54 | ~90 | chain 2 H7G
55 | ~110 | chain 2 H7Y
56 | ~110 | chain 2 H7W
57 | ~95 | chain 2 H7M
58 | ~100 | chain 2 H7S
59 | ~120 | chain 2 H7K
60 | ~110 | chain 2 H7P
61 | ~100 | chain 2 H7V
62 | ~95 | chain 2 H7T
63 | ~140 | chain 2 H7R
64 | ~100 | chain 2 H7N

Variants of: B1
Test: as above
Remark: another data set of the same source

Row | percent of parent [% Parent] | Variant
65 | ~120 | chain 2 D8A
66 | ~150 | chain 2 D8N
67 | ~130 | chain 2 D8Y
68 | ~220 | chain 2 D8K
69 | ~280 | chain 2 D8R
70 | ~140 | chain 2 D8C
71 | ~140 | chain 2 D8I
72 | ~160 | chain 2 D8P
73 | ~160 | chain 2 D8Q
74 | ~140 | chain 2 D8V
75 | ~100 | chain 2 D8E
76 | ~160 | chain 2 D8S
77 | ~130 | chain 2 D8G
78 | ~130 | chain 2 D8H
79 | ~130 | chain 2 D8T
80 | ~130 | chain 2 D8L
81 | ~130 | chain 2 D8F
82 | ~140 | chain 2 D8M
83 | ~150 | chain 2 D8W

Variants of: B1
Test: as above
Remark: another data set of the same source

Row | percent of parent [% Parent] | Variant
84 | ~85 | chain 2 P11H
85 | ~68 | chain 2 P11G
86 | ~82 | chain 2 P11L
87 | ~130 | chain 2 P11D
88 | ~88 | chain 2 P11I
89 | ~90 | chain 2 P11Q
90 | ~110 | chain 2 P11W
91 | ~85 | chain 2 P11N
92 | ~260 | chain 2 P11R
93 | ~100 | chain 2 P11S
94 | ~85 | chain 2 P11T
95 | ~100 | chain 2 P11F
96 | ~72 | chain 2 P11A
97 | ~110 | chain 2 P11Y
98 | ~100 | chain 2 P11M
99 | ~120 | chain 2 P11C
100 | ~88 | chain 2 P11E
101 | ~85 | chain 2 P11V
102 | ~150 | chain 2 P11K

Variants of: B1
Test: as above
Remark: another data set of the same source

Row | percent of parent [% Parent] | Variant
103 | ~95 | chain 2 R10F
104 | ~120 | chain 2 R10W
105 | ~78 | chain 2 R10G
106 | ~78 | chain 2 R10I
107 | ~80 | chain 2 R10P
108 | ~110 | chain 2 R10C
109 | ~88 | chain 2 R10M
110 | ~85 | chain 2 R10S
111 | ~110 | chain 2 R10D
112 | ~85 | chain 2 R10V
113 | ~110 | chain 2 R10E
114 | ~80 | chain 2 R10T
115 | ~80 | chain 2 R10K
116 | ~82 | chain 2 R10L
117 | ~120 | chain 2 R10Y
118 | ~82 | chain 2 R10N
119 | ~80 | chain 2 R10Q
120 | ~75 | chain 2 R10H
121 | ~72 | chain 2 R10A
